Patent US6025146A, “Identification of M-CSF agonists and antagonists” (Chiron Corporation, priority 1995, dated 2000)

How the values were obtained:
NFS-60 cells [1] = experiment: Antibody neutralization of M-CSF dimers by 5H410 Mab in the NFS-60 bioassay; format: cell-based; conditions: serial dilution neutralization experiments
Procedure: Fractionated products were analyzed on reducing SDS-PAGE and stained with Coomassie, according to the method of Laemmli, Nature […] 227:680-685 (1970). Biological activity was determined using the M-CSF dependent NFS-60 bioassay (See Example 10 below). Antibody neutralization experiments were carried out by pre-incubating approximately 5,000 units of M-CSF dimer with varying dilutions of the neutralizing M-CSF 5H410 Mab (made to refolded E. coli CΔ 150 M-CSFα dimer) prior to bioassay. (Halenbeck et al, Bio/Technology 7:710 (1989)
The biological activity of all three dimer species was neutralized to the same extent in serial dilution neutralization experiments using the 5H410 M-CSF Mab in the NFS-60 bioassay.

NFS-60 cells [2] = experiment: M-CSF dependent NFS-60 bioassay (MTT read-out); format: cell-based
Procedure: Fractionated products were analyzed on reducing SDS-PAGE and stained with Coomassie, according to the method of Laemmli, Nature […] 227:680-685 (1970). Biological activity was determined using the M-CSF dependent NFS-60 bioassay (See Example 10 below). […] (Halenbeck et al, Bio/Technology 7:710 (1989)
The purified mutein dimers were subjected to bioassay using NFS-60 cells which is an M-CSF dependent cell line which forms colonies in the presence of active M-CSF. Standards and purified mutein samples were serially diluted 1:2 in RPMI media (10% fetal bovine serum) in a 50 microliter volume in 96-well microtiter plates. […] Plates were incubated at 37° C., 5% CO2 for 44 h. 5 mg/ml MTT dye was added to each sample and incubation continued for 4 h. 20% SDS was added to each sample. The plates were wrapped in foil and left overnight. The absorbance of each sample was read at 570 nm and compared to a standard of known M-CSF concentration.

[3] = tested on: cell surface M-CSF receptor (NFS60 cell M-CSF receptors); experiment: NFS-60 receptor competition assay: displacement of 125I-M-CSF by radioligand displacement; format: binding
Procedure: FIG. 7 illustrates the competitive binding of M-CSF and M-CSF muteins to NFS60 cell M-CSF receptors.
The plates were incubated at 4° C. for 20 hours and the cells were collected on glass-fiber filters. Maximum binding was measured in the absence of unlabeled M-CSF and non-specific binding was measured in the presence of 1000-fold greater concentration of unlabeled M-CSF (compared to labeled M-CSF). […] Results are expressed as percent displacement of radioactive M-CSF versus mutein concentration (FIG. 7).

fold increase in IC50 / decrease in binding affinity compared to M-CSFα NΔ3CΔ158 ([3]; relative to IC50 of about 17 pM for 158)	Molecule	neutralization of biological activity by 5H410 M-CSF Mab (NFS-60 cells [1])	specific activity (NFS-60 cells [2]; purified refolded dimers, compared to a standard of known M-CSF concentration)	fold reduction in biological (specific) activity compared to parental M-CSF (NFS-60 cells [2]; relative to parental reference (homodimer or heterodimer))	M-CSF receptor-binding ability (in words) [3]
	Chinese hamster ovary cell (CHO)-expressed M-CSF: "naturally refolded" M-CSF expressed in Chinese hamster ovary cells (protein, UniProt P09603 33-554, looked up) Macrophage colony-stimulating …: EEVSEYCSHMIGSGHLQSLQRLIDSQMETSCQITFEFVDQEQLKDPVCYLKKAFLLVQDIMEDTMRFRDNTPNAIAIVQLQELSLRLKSCFTKDYEEHDKACVRTFYETPLQLLEKVKNVFNETKNLLDKDWNIFSKNCNNSFAECSSQDVVTKPDCNCLYPKAIPSSDPASVSPHQPLAPSMAPVAGLTWEDSEGTEGSSLLPGEQPLHTVDPGSAKQRPPRSTCQSFEPPETPVVKDSTIGGSPQPRPSVGAFNPGMEDILDSAMGTNWVPEEASGEASEIPVPQGTELSPSRPGGGSMQTEPARPSNFLSASSPLPASAKGQQPADVTGTALPRVGPVRPTGQDWNHTPQKTDHPSALLRDPPEPGSPRISSLRPQGLSNPSTLSAQPQLSRSHSSGSVLPLGELEGRRSTRDRRSPAEPEGGPASEGAARPLPRFNSVPLTDTGHERQSEGSFSPQLQESVFHLLVPSVILVLLAVGGLLFYRWRRRSHQEPQRADSPLEQPEGSPLTQDDRQVELPV	neutralizes			
5 fold	Q20A, V78K: double mutant of M-CSF altering solvent accessible residues in the central portion of helices A and C (protein, UniProt P09603 33-554, looked up, variant Q20A V78K) Macrophage colony-stimulating …: EEVSEYCSHMIGSGHLQSLARLIDSQMETSCQITFEFVDQEQLKDPVCYLKKAFLLVQDIMEDTMRFRDNTPNAIAIKQLQELSLRLKSCFTKDYEEHDKACVRTFYETPLQLLEKVKNVFNETKNLLDKDWNIFSKNCNNSFAECSSQDVVTKPDCNCLYPKAIPSSDPASVSPHQPLAPSMAPVAGLTWEDSEGTEGSSLLPGEQPLHTVDPGSAKQRPPRSTCQSFEPPETPVVKDSTIGGSPQPRPSVGAFNPGMEDILDSAMGTNWVPEEASGEASEIPVPQGTELSPSRPGGGSMQTEPARPSNFLSASSPLPASAKGQQPADVTGTALPRVGPVRPTGQDWNHTPQKTDHPSALLRDPPEPGSPRISSLRPQGLSNPSTLSAQPQLSRSHSSGSVLPLGELEGRRSTRDRRSPAEPEGGPASEGAARPLPRFNSVPLTDTGHERQSEGSFSPQLQESVFHLLVPSVILVLLAVGGLLFYRWRRRSHQEPQRADSPLEQPEGSPLTQDDRQVELPV		1.4×10^7 U/mg	8-10 fold	decreased
